According to patent US20230366033A1 (University of Texas, published 2023):
Where no end group is shown, it is not given here. [ ]: non-standard residue; d: D form. pY = N[C@@H](Cc1ccc(OP(=O)(O)O)cc1)C(=O)O

T1: Human MRE11 core (residues 1-411), bacterially expressed and purified (human, UniProt P49959 1-411)
T1 construct: range 1-411; the only purified MRE11 described is the 1-411 core; also called human MRE11 (residue 1-411); bacterially purified MRE11
T1 sequence (looked up): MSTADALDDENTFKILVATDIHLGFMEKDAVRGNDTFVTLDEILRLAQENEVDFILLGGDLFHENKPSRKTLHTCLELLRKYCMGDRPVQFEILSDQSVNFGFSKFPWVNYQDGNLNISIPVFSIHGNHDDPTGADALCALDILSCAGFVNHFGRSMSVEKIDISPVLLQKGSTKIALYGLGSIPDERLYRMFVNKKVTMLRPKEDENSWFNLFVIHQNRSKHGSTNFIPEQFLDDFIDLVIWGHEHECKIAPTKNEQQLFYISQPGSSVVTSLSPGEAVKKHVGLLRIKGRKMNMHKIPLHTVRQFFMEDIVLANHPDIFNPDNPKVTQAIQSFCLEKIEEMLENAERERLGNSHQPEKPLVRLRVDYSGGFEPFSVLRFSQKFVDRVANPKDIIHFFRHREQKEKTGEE

T2: Flag-RAD50 expressed in HEK293T cells (UniProt Q92878 1-1312, limits assumed)
T2 construct: not shown: Flag tag
T2 sequence (looked up): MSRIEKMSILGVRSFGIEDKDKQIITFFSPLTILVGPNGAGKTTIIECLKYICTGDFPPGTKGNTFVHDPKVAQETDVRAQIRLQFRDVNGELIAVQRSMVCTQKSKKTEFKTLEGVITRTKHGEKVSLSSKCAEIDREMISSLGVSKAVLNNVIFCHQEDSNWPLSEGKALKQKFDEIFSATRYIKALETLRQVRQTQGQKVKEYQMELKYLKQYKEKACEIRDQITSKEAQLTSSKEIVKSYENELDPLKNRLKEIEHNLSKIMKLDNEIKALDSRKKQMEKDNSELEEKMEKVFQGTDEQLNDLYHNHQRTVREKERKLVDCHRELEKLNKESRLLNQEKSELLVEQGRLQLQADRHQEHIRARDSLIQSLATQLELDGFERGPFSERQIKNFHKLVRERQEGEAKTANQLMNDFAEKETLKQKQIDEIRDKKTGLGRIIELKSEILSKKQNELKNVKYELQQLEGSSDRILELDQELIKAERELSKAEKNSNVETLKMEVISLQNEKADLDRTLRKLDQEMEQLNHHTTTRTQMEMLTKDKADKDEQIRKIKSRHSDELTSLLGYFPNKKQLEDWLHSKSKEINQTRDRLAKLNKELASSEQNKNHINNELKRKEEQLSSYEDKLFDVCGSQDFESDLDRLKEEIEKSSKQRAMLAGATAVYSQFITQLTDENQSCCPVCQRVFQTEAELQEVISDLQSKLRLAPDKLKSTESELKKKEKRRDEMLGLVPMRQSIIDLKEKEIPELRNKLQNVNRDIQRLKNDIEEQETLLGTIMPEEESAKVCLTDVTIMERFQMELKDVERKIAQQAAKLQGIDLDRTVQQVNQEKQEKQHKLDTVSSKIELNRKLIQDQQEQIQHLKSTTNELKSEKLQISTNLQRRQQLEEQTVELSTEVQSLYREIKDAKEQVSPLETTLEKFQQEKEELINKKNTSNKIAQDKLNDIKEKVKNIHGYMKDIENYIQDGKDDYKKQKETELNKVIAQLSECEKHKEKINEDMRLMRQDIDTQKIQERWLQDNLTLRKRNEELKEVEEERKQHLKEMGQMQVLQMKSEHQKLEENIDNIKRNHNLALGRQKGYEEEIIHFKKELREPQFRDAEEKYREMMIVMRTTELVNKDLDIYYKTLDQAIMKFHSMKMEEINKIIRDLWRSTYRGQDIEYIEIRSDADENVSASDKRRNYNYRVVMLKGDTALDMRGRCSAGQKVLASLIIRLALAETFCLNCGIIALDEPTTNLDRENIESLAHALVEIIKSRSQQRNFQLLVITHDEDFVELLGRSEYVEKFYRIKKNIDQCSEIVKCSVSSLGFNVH

T3: NBS1, endogenous, in HEK293T cell extracts (UniProt O60934 1-754)
T3 sequence (looked up): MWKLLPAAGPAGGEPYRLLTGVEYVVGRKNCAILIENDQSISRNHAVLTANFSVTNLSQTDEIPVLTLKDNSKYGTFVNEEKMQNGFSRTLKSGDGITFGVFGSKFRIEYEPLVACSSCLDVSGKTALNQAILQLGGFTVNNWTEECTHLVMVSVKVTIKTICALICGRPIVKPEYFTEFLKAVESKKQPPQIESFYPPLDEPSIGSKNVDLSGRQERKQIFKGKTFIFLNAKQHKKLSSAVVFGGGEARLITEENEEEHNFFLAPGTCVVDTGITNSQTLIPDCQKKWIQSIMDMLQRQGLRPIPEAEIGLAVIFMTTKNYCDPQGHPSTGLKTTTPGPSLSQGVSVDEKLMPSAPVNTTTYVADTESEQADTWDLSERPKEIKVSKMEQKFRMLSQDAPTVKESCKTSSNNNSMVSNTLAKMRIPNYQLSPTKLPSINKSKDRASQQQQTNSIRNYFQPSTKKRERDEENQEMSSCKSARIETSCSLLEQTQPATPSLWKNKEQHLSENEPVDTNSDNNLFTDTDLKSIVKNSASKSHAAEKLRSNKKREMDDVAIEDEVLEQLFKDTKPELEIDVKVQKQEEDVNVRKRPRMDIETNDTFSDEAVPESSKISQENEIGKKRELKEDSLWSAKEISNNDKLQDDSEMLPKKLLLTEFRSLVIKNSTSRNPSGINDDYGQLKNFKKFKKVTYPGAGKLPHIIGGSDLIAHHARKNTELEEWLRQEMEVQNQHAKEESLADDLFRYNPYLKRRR

B1: RPA70 N-terminal domain (residues 1-120), purified (other, UniProt P27694 1-120, looked up)
chain: MVGQLSEGAIAAIMQKGDTNIKPILQVINIRPITTGNSPPRYRLLMSDGLNTLSSFMLATQLNPLVEEEQLSSNCVCQIHRFIVNTLKDGRRVVILMELEVLKSAEAVGVKIGNPVPYNE
modifications: Atto488 label
notes: range 1-120; also called RPA70 N-terminal OB1 domain; RPA70N (1-120)
B2: GST-fused GRB2 N-terminal SH3 (nSH3) domain (other, UniProt P62993 1-58, looked up)
chain: MEAIAKYDFKATADDELSFKRGDILKVLNEECDQNWYKAELNGKDGFIPKNYIEMKPH
notes: domain: N-terminal SH3 (nSH3); not shown: glutathione S-transferase (GST)
B3: GST-fused GRB2 C-terminal SH3 (cSH3) domain (other, UniProt P62993 156-217, looked up)
chain: QQPTYVQALFDFDPQEDGELGFRRGDFIHVMDNSDPNWWKGACHGQTGMFPRNYVTPVNRNV
notes: domain: C-terminal (cSH3); not shown: glutathione S-transferase (GST)
B4: MRE11, endogenous, in extracts of human cell lines (HEK293T, HeLa, U2OS) (enzyme, UniProt P49959 2-708, looked up)
chain: STADALDDENTFKILVATDIHLGFMEKDAVRGNDTFVTLDEILRLAQENEVDFILLGGDLFHENKPSRKTLHTCLELLRKYCMGDRPVQFEILSDQSVNFGFSKFPWVNYQDGNLNISIPVFSIHGNHDDPTGADALCALDILSCAGFVNHFGRSMSVEKIDISPVLLQKGSTKIALYGLGSIPDERLYRMFVNKKVTMLRPKEDENSWFNLFVIHQNRSKHGSTNFIPEQFLDDFIDLVIWGHEHECKIAPTKNEQQLFYISQPGSSVVTSLSPGEAVKKHVGLLRIKGRKMNMHKIPLHTVRQFFMEDIVLANHPDIFNPDNPKVTQAIQSFCLEKIEEMLENAERERLGNSHQPEKPLVRLRVDYSGGFEPFSVLRFSQKFVDRVANPKDIIHFFRHREQKEKTGEEINFGKLITKPSEGTTLRVEDLVKQYFQTAEKNVQLSLLTERGMGEAVQEFVDKEEKDAIEELVKYQLEKTQRFLKERHIDALEDKIDEEVRRFRETRQKNTNEEDDEVREAMTRARALRSQSEESASAFSADDLMSIDLAEQMANDSDDSISAATNKGRGRGRGRRGGRGQNSASRGGSQRGRADTGLETSTRSRNSKTAVSASRNMSIIDAFKSTRQQPSRNVTTKNYSEVIEVDESDVEEDIFPTTSKTDQRWSSTSSSKIMSQSQVSKGVDFESSEDDDDDPFMNTSSLRRNRR
B5: Phosphorylated H2AX peptide PSGGKKATQA(pS)QEY (pS139 only) (peptide)
peptide: PSGGKKATQAXQEY
modifications: phosphoserine at position 11 (S139 of H2AX)
notes: Synthetic, from GenScript; also called pS139 H2AX
B6: Tyrosine-phosphorylated MRE11 peptide WVNpYQDGNLN (peptide)
peptide: WVN[pY]QDGNLN
modifications: not fully specified
notes: also called Y111 phosphorylated MRE11 peptide; tyrosine phosphorylated peptide
B7: Phosphorylated H2AX peptide PSGGKKATQASQE(pY) (pY142 only) (peptide)
peptide: PSGGKKATQASQEX
modifications: phosphotyrosine at position 14 (Y142 of H2AX)
notes: Synthetic, from GenScript; also called pY142 H2AX
B8: GRB2 OB1 peptide KYDFKATADDELSFKRG (peptide)
peptide: KYDFKATADDELSFKRG
notes: Synthetic, from GenScript; also called GRB2-derived OB1 peptide
B9: Flag-MRE11 expressed in HEK293T cells (enzyme, UniProt P49959 1-708, looked up)
chain: MSTADALDDENTFKILVATDIHLGFMEKDAVRGNDTFVTLDEILRLAQENEVDFILLGGDLFHENKPSRKTLHTCLELLRKYCMGDRPVQFEILSDQSVNFGFSKFPWVNYQDGNLNISIPVFSIHGNHDDPTGADALCALDILSCAGFVNHFGRSMSVEKIDISPVLLQKGSTKIALYGLGSIPDERLYRMFVNKKVTMLRPKEDENSWFNLFVIHQNRSKHGSTNFIPEQFLDDFIDLVIWGHEHECKIAPTKNEQQLFYISQPGSSVVTSLSPGEAVKKHVGLLRIKGRKMNMHKIPLHTVRQFFMEDIVLANHPDIFNPDNPKVTQAIQSFCLEKIEEMLENAERERLGNSHQPEKPLVRLRVDYSGGFEPFSVLRFSQKFVDRVANPKDIIHFFRHREQKEKTGEEINFGKLITKPSEGTTLRVEDLVKQYFQTAEKNVQLSLLTERGMGEAVQEFVDKEEKDAIEELVKYQLEKTQRFLKERHIDALEDKIDEEVRRFRETRQKNTNEEDDEVREAMTRARALRSQSEESASAFSADDLMSIDLAEQMANDSDDSISAATNKGRGRGRGRRGGRGQNSASRGGSQRGRADTGLETSTRSRNSKTAVSASRNMSIIDAFKSTRQQPSRNVTTKNYSEVIEVDESDVEEDIFPTTSKTDQRWSSTSSSKIMSQSQVSKGVDFESSEDDDDDPFMNTSSLRRNRR
notes: not shown: Flag tag

Columns and labels:
[1] = molecular target: T4, GRB2 (growth factor receptor-bound protein 2), wild-type, full-length, bacterially expressed and purified (UniProt P62993 1-217, Atto488 label where used as the labelled partner in MST); assay: MST, 50 nM Atto488-labelled RPA70 N-terminal domain (1-120), GRB2 titrated [panel D]
T4 construct: domain: full-length; also called WTGRB2; non-ubiquitinated GRB2

[2] = molecular target: T1, Human MRE11 core (residues 1-411), …; assay: GST pull-down of bacterially expressed, purified human MRE11, western blot [panel C]
[3] = molecular target: T5, GRB2-SH2 domain, purified, Atto488-labelled (UniProt P62993 60-152, limits assumed, Atto488 label); assay: MST; 100 nM Atto488-labelled GRB2-SH2 domain, peptide titrated; unphosphorylated MRE11 peptide
T5 construct: domain: SH2; Individual GRB2 domains generated as described before (Ahmed et al., 2010)

[4] = molecular target: T6, GRB2 K109R mutant, bacterially expressed and purified (UniProt P62993 1-217, Atto488 label in MST); assay: MST, 100 nM Atto488-labelled K109R GRB2, peptide titrated
T6 construct: domain: full-length; also called K109RGRB2; K109R GRB2 mutant

[5] = molecular target: T7, RPA70, endogenous, in HEK293T cell extracts (UniProt P27694 1-616); assay: GST pull-down from HEK293T cell extracts, western blot [panel B]
T7 construct: also called RPA1

[6] = molecular target: T8, Flag-tagged POLQ (polymerase theta) overexpressed in HEK293T cells (UniProt O75417 1-2590, limits assumed); assay: Flag immunoprecipitation from HEK293T cells with or without 5 Gy IR, western blot [panel C]
T8 construct: also called Flag-POLQ; not shown: Flag tag
T8 sequence (O75417 whole entry): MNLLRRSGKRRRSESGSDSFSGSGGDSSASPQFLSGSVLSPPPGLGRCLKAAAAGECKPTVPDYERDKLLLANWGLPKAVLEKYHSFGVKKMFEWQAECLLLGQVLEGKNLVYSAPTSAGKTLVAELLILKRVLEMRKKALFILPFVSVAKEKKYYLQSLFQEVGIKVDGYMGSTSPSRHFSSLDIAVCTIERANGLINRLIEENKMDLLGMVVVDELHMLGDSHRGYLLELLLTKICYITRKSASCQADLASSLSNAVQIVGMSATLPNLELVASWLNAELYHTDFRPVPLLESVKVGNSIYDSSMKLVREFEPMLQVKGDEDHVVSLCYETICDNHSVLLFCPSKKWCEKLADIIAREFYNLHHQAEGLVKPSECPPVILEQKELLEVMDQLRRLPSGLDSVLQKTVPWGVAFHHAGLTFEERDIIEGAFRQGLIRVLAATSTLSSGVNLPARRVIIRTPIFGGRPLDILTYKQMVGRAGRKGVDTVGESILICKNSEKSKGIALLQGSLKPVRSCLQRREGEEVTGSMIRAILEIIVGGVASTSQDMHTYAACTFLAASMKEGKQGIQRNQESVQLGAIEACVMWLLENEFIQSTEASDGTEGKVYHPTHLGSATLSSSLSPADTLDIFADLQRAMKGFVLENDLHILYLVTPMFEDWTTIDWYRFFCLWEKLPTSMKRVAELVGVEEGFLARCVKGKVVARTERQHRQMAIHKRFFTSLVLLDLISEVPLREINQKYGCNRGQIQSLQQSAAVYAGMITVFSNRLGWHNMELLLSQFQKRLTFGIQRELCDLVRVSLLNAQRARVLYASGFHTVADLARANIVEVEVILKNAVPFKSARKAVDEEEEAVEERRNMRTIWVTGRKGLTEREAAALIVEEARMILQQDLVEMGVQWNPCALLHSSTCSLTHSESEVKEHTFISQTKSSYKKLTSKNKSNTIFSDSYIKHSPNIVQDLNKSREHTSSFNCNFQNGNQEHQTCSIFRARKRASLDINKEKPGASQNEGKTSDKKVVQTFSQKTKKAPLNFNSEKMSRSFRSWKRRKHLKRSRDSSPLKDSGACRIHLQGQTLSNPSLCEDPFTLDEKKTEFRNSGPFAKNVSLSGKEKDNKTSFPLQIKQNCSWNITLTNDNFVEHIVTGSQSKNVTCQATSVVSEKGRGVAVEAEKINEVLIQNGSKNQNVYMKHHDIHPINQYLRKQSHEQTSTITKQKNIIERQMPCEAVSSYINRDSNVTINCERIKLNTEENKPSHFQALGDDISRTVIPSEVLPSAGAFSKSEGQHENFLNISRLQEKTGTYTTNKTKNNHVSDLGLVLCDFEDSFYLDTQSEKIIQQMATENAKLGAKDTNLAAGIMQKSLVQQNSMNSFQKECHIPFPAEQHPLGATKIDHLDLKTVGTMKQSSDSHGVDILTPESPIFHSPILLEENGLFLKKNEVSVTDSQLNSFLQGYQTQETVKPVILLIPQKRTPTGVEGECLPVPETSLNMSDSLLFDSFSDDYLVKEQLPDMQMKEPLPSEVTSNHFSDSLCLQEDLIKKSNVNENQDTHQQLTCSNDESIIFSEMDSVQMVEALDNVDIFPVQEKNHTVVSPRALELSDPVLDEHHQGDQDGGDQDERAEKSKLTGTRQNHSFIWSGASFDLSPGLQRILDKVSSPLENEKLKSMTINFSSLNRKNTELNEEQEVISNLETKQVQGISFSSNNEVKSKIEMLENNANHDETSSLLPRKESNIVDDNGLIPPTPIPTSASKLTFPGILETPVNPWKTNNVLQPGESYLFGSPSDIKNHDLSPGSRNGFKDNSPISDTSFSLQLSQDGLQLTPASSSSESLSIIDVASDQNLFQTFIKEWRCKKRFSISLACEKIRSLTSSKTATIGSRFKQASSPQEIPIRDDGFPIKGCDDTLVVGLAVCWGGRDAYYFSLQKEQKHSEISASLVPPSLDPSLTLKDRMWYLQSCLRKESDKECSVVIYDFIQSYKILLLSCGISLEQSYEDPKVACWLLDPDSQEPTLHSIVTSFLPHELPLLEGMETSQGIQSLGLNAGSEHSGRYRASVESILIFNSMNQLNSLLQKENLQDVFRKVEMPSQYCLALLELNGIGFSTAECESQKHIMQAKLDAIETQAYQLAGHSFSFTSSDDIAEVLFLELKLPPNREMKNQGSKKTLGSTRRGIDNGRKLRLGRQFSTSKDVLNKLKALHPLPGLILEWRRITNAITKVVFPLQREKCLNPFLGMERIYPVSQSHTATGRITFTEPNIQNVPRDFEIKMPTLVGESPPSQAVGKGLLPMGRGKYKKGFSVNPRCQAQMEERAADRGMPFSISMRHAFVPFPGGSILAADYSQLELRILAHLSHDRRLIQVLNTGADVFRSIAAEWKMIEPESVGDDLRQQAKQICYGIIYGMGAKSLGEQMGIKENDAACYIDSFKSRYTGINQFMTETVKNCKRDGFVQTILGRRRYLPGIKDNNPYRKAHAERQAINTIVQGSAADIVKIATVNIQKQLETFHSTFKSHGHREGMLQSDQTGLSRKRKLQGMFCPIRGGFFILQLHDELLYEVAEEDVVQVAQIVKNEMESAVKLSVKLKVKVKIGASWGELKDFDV

[7] = molecular target: T2, Flag-RAD50 expressed in HEK293T cells; assay: Flag-M2 immunoprecipitation from HEK293T cells co-transfected with RFP-GRB2, western blot [panel E]
[8] = molecular target: T5, GRB2-SH2 domain, purified, …; assay: MST, 100 nM Atto488-labelled GRB2-SH2 domain, peptide titrated
[9] = molecular target: T5, GRB2-SH2 domain, purified, …; assay: MST with the Y111 phosphorylated MRE11 peptide
[10] = molecular target: T4, GRB2 (growth factor receptor-bound …); assay: MST with the Y111 phosphorylated MRE11 peptide
[11] = molecular target: B1; assay: MST, 50 nM Atto488-labelled RPA70 N-terminal domain (1-120), peptide titrated [panel D]
[12] = molecular target: T3, NBS1, endogenous, in HEK293T cell …; assay: Flag-M2 immunoprecipitation from HEK293T cells, unperturbed or 5 Gy IR, western blot

B1
Kd [1]: 1.6 µM

B2
binding result [2]: no binding

WVNYQDGNLN [MRE11 peptide WVNYQDGNLN]
Kd [3]: 33 µM | Kd [4]: > 200 µM

B3
binding result [5]: no binding

B4
binding result [6]: binds | binding result [7]: binds

B5
binding result [8]: no binding

B6
Kd [9]: 46.8 µM | Kd [10]: 19.7 µM

B7
binding result [8]: no binding (tested: about 50 µM)

B8
Kd [11]: 2.1 µM

B9
binding result [12]: binds
